From article PMC6395754

Target: profilin1 (PFN1) (UniProt P07737)
Test: GST-PFN1 pull-down from cell lysate
Conditions: reference: wild type

Row | Substance | binding against the reference (sites S665) | binding against the reference (sites S629)
1 | DIAPH1 (from UniProt O60610) S665A | stronger | –
2 | DIAPH1 (from UniProt O60610) S629A | – | stronger
